Legend:
Assay in all cases: SPR
[1] = biological target: Syrian hamster FcγRI, soluble ectodomain (Syrian hamster (Mesocricetus auratus))
[2] = biological target: Syrian hamster FcγRIII, soluble ectodomain (Syrian hamster (Mesocricetus auratus))
[3] = biological target: Syrian hamster FcγRIIb, soluble ectodomain (Syrian hamster (Mesocricetus auratus))
[4] = biological target: Syrian hamster FcγRIV, soluble ectodomain (Syrian hamster (Mesocricetus auratus))

Substance | Kd [1] | Kd [2] | Kd [3] | Kd [4]
Hamster IgG1 | > 1000 nM | 35.5 nM | 56.2 nM | > 1000 nM
Hamster IgG2a | 496 nM | 702 nM | 1030 nM | 17.1 nM
Mouse IgG1 | > 1000 nM | 78.1 nM | 143 nM | > 1000 nM
Mouse IgG2a | 338 nM | 572 nM | 1140 nM | 14.7 nM
human IgG1 Fc domain variant GAALIE (from UniProt P01857) | > 1000 nM | 233 nM | 328 nM | 9.52 nM
human IgG1 Fc domain variant V11 (from UniProt P01857) | > 1000 nM | 260 nM | 345 nM | > 1000 nM
wild-type human IgG1 (from UniProt P01857) | 737 nM | > 1000 nM | > 1000 nM | 102 nM

— publication PMC8168397
